Biological target: T1, 金黄色葡萄球菌B型肠毒素(SEB)抗原 (Staphylococcus aureus enterotoxin B) (Staphylococcus aureus, UniProt P01552 28-266)
T1 sequence: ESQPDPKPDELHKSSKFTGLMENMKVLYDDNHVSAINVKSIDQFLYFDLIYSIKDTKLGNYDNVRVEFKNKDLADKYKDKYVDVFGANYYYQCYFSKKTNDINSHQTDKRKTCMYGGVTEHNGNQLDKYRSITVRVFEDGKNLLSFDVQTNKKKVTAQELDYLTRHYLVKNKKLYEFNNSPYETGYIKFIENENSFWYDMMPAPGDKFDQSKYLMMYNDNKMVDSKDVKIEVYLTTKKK
Test: monoclonal phage ELISA on coated SEB antigen, anti-M13-HRP, OD450

B1: 抗肠毒素的纳米抗体 (anti-SEB nanobody, heavy chain variable region SEQ ID NO: 8) (VHH)
VHH: QVQLVESGGGSVQAGASLTLSCVVSVRTDSYAMGWMRQAPGKEREVIAGVSWSGQSTTYADSVKGRFTISRDNAKRAVYLQMGNLKPEDTAVYYCAMGRAPFYIGLTSEPEAYESWGQGTQVTVSL
B1: binds.

Source: CN113416248A (INST MILITARY MEDICINE ACADEMY MILITARY SCIENCES PLA, dated 2021)
